These results are taken from patent US20180245075.

Data set [1] deals with T1, DpnI binding domain-Dam(R95A) (synRW) (Streptococcus pneumoniae / Escherichia coli) (UniProt P0AEE8).
T1 sequence: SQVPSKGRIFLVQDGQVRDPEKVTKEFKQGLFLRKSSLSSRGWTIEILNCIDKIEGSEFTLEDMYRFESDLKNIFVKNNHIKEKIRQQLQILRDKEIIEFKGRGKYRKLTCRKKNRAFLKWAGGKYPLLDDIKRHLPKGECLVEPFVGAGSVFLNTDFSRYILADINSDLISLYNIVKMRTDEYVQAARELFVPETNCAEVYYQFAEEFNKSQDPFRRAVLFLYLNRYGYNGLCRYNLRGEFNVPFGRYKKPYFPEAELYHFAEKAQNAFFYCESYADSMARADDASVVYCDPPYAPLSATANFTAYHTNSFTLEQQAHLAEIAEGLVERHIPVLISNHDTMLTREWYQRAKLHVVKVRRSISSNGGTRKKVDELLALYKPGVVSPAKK
The data set can be described thus: cell_activity. The following applies: N6-methyladenine at A of GATC; with inducible writer and DpnI-VP64; mCherry-Dam(R95A) gave no increase.

Data set [2] has as its target T2, DpnI binding domain-VP64 (synR-VP64) (Streptococcus pneumoniae) (UniProt P0A459).
T2 sequence: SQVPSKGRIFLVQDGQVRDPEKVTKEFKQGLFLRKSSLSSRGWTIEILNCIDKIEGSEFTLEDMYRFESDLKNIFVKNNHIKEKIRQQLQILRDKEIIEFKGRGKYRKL
The experiment in a line: cell_activity. The following applies: N6-methyladenine at A of GATC; integrated interspersed reporter with synI; >100-fold episomal with ZF-Dam(WT).

In turn, “GATC (double strand) [adenine-methylated GATC sites of reporter]” showed an activity (fold increase in GFP activation) in data set [1] of 2. For the same sequence, the activity (fold GFP activation) in data set [2] was found to be 30.
